± gives the uncertainty stated by the source.
B1: Double-stranded RNA-specific adenosine deaminase, residues 296 to 358; numbered along this chain, P55265 (parent)
chain: MAEIKEKICDYLFNVSDSSALNLAKNIGLTKARDINAVLIDMERQGDVYRQGTTPPIWHLTDK

Variants of: B1
Experiment: abundance fitness (aPCA) (normalised: wild type 0, dead -1); higher = more abundant; growth selection in yeast, the domain comes from the species named
Conditions: Homo sapiens

Variant	abundance fitness
H59Y	-0.466 ± 0.078
T54S	0.127 ± 0.05
P56M	-1.28 ± 0.34
P56D	-0.447 ± 0.19
P56Q	-0.541 ± 0.1
P56L	-0.656 ± 0.12
S19T	-0.236 ± 0.26
Y11C	-0.22 ± 0.076
Y11T	-0.341 ± 0.067
Y11N	-0.407 ± 0.16
T30A	0.128 ± 0.038
T30I	-0.299 ± 0.084
T30G	-0.054 ± 0.055
T30M	-0.204 ± 0.072
T30L	-0.312 ± 0.047
P55T	-0.25 ± 0.059
P55Y	-0.491 ± 0.11
A20R	-0.615 ± 0.051
L12S	-0.295 ± 0.096
E43M	-0.848 ± 0.12
G52K	-0.367 ± 0.1

Variant	abundance fitness
G52A	-0.342 ± 0.055
I4G	-0.435 ± 0.043
I4A	-0.37 ± 0.048
N36E	0.406 ± 0.055
N36V	-0.428 ± 0.052
N36I	-0.438 ± 0.11
N36D	0.131 ± 0.091
Q51P	-0.861 ± 0.1
Q51A	-0.162 ± 0.049
Q51N	-0.051 ± 0.084
Q51C	0.051 ± 0.046
N26G	-0.001 ± 0.05
N26Y	-0.114 ± 0.077
N26M	-0.328 ± 0.07
N26V	0.044 ± 0.047
F13V	-0.061 ± 0.055
F13H	0.1 ± 0.1
F13A	0.543 ± 0.051
F13R	0.577 ± 0.04
W58A	-0.426 ± 0.057
W58D	-0.434 ± 0.075

Variant	abundance fitness
I57D	-0.191 ± 0.087
I57P	-0.481 ± 0.079
I57L	-0.281 ± 0.05
I57N	-0.352 ± 0.081
R33K	0.056 ± 0.064
R33Y	0.185 ± 0.074
R33E	0.564 ± 0.085
R33T	0.263 ± 0.052
I8K	-0.568 ± 0.12
D10Q	0.051 ± 0.058
D10E	0 ± 0.075
D10A	-0.021 ± 0.041
R44N	-0.056 ± 0.094
R44D	-0.175 ± 0.13
K5I	-0.512 ± 0.081
Q45C	-0.053 ± 0.058
Q45N	0.033 ± 0.049
S16C	-0.25 ± 0.095
S16I	-0.543 ± 0.11
S16T	-0.407 ± 0.064
V38S	-0.316 ± 0.057

Variant	abundance fitness
V38Y	-1.27 ± 0.39
V38K	-0.387 ± 0.067
V38C	0.12 ± 0.085
E6I	-0.886 ± 0.15
N14D	-0.312 ± 0.091
N14M	-0.189 ± 0.068
N14G	-0.236 ± 0.047
N14W	-0.426 ± 0.084
N14E	0.102 ± 0.059
S18Q	-0.481 ± 0.076
S18H	-0.366 ± 0.081
N22I	-0.339 ± 0.12
N22M	-0.493 ± 0.1
K31P	0.041 ± 0.057
K31E	0.251 ± 0.083
K31I	-1.14 ± 0.37
K31W	-0.635 ± 0.078
K31N	0.144 ± 0.092
K31G	-0.049 ± 0.044
V48D	-0.335 ± 0.087
V48F	-0.927 ± 0.17

From the Human Domainome abundance scans (Beltran et al. 2025)
